Data taken from publication PMC3184960.

B1: c-Myc-tagged wild-type XAP2 [human] / ERα, transfected in HeLa cells [not stated] (parent)
chain 1: MADIIARLREDGIQKRVIQEGRGELPDFQDGTKATFHYRTLHSDDEGTVLDDSRARGKPMELIIGKKFKLPVWETIVCTMREGEIAQFLCDIKHVVLYPLVAKSLRNIAVGKDPLEGQRHCCGVAQMREHSSLGHADLDALQQNPQPLIFHMEMLKVESPGTYQQDPWAMTDEEKAKAVPLIHQEGNRLYREGHVKEAAAKYYDAIACLKNLQMKEQPGSPEWIQLDQQITPLLLNYCQCKLVVEEYYEVLDHCSSILNKYDDNVKAYFKRGKAHAAVWNAQEAQADFAKVLELDPALAPVVSRELRALEARIRQKDEEDKARFRGIFSH
chain 2: MTMTLHTKASGMALLHQIQGNELEPLNRPQLKIPLERPLGEVYLDSSKPAVYNYPEGAAYEFNAAAAANAQVYGQTGLPYGPGSEAAAFGSNGLGGFPPLNSVSPSPLMLLHPPPQLSPFLQPHGQQVPYYLENEPSGYTVREAGPPAFYRPNSDNRRQGGRERLASTNDKGSMAMESAKETRYCAVCNDYASGYHYGVWSCEGCKAFFKRSIQGHNDYMCPATNQCTIDKNRRKSCQACRLRKCYEVGMMKGGIRKDRRGGRMLKHKRQRDDGEGRGEVGSAGDMRAANLWPSPLMIKRSKKNSLALSLTADQMVSALLDAEPPILYSEYDPTRPFSEASMMGLLTNLADRELVHMINWAKRVPGFVDLTLHDQVHLLECAWLEILMIGLVWRSMEHPGKLLFAPNLLLDRNQGKCVEGMVEIFDMLLATSSRFRMMNLQGEEFVCLKSIILLNSGVYTFLSSTLKSLEEKDHIHRVLDKITDTLIHLMAKAGLTLQQQHQRLAQLLLILSHIRHMSNKGMEHLYSMKCKNVVPLYDLLLEMLDAHRLHAPTSRGGASVEETDQSHLATAGSTSSHSLQKYYITGEAEGFPATV

Variants of: B1
Assay: co-immunoprecipitation (IP with ERα antibody, Western blot with c-Myc antibody, band densitometry)
Conditions: 24 h after transfection
[1] = 10 nM E2 for 1 h, parent: 1, read off a plot
[2] = DMSO (veh) for 1 h, parent: 0.9, read off a plot

ratio to parent [1] | ratio to parent [2] | Variant
0.97 | 0.85 | chain 1 V49M
0.68 | 0.85 | chain 1 R271W
